Experimental findings from patent US6828106 (dated 2004) are described below.

Where no end group is shown, it is not given here. fluorescein or rhodamine = not defined here

In data set [1] the target is T1, peptide C labelled with rhodamine (CR) (not fully specified; N-terminal acetyl; C-terminal amide; labelled with rhodamine (or vice versa with fluorescein)).
T1 construct: Artificial designer peptide, one partner of a heterodimeric coiled coil
T1 peptide: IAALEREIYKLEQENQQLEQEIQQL
The experiment in a line: FRET between fluorescein- and rhodamine-labelled peptides.

In data set [2] the target is T2, peptide 1 (Example 8), labeled with fluorescein (labeled with fluorescein (site not stated)).
T2 construct: Heterodimer partner in the chymotrypsin assays
T2 peptide: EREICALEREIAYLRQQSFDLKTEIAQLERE
The experiment in a line: FRET (fluorescein/rhodamine) and fluorescence polarization (fluorescein/biotin with streptavidin), 6 µM total peptide, 1:1. Background: In fluorescence polarisation assays a small probe gives low polarisation when free and higher when bound to something large.

Data set [3] deals with the molecule itself. The experiment in a line: FRET (fluorescein/rhodamine) and fluorescence polarization (fluorescein/biotin), 6 µM total peptide, 6:1.
Data set [4] deals with the molecule itself. The experiment in a line: FRET between the fluorescein- and rhodamine-labelled forms of the same peptide (homodimer).
The target of data set [5] is T3, reporter peptide 1 (Example 10), labeled with fluorescein (labeled with fluorescein (site not stated)).
T3 construct: Heterodimer partner in the thrombin assay
T3 peptide: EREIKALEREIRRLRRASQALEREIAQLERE
The experiment in a line: FRET (fluorescein/rhodamine), 5 µM total peptide, 1:1.

B1: peptide B labelled with fluorescein (BF) (peptide)
peptide: IAALRERICYLRERNQQLRQRIQQL
modifications: not fully specified; also: fluorescein label, site not given here
notes: Artificial designer peptide, one partner of a heterodimeric coiled coil
B1: the binding result in data set [1] is on record as “binds”.

B2: peptide 2 (Example 8), labeled with rhodamine (FRET) or biotin (FP) (peptide)
peptide: LRQRIQCLRQKIAYLRQQSFDLKTQIAQLRQR
modifications: also: rhodamine or biotin label, site not given here
notes: Heterodimer partner in the chymotrypsin assays; Both labelled forms are written as one molecule
Consider B2, for which the binding result in data set [2] is recorded as “binds”.

B3: reporter peptide (Example 9, TEV) (peptide)
peptide: KGRMRCLEDRVENLYSQSYHLENEVARLRRLVGELAAK
modifications: not fully specified; also: homodimer
notes: Forms a homodimer; All labelled forms are written as one molecule (6:1 ratio R:F or biotin:F)
In the case of B3, in data set [3], the binding result is “binds”.

B4: Peptide 4 (Example 5, caspase 2, 3, 7 site) (peptide)
peptide: RMKQLEDKVEELLDENDHLENEVACLKKLVGER
modifications: also: fluorescein or rhodamine label, site not given here
notes: GCN4-derived homodimeric reporter; Both labelled forms are written as one molecule
As to B4, the binding result in data set [4] is on record as “binds”.

B5: reporter peptide 2 (Example 10), labeled with rhodamine (peptide)
peptide: LRQRIQCLRYRIRRLRRASQALRQRIAQLKQR
modifications: also: rhodamine label, site not given here
notes: Heterodimer partner in the thrombin assay
Consider B5, for which, in data set [5], the binding result is reported as “binds”.

B6: Peptide 2 (Example 3, TEV protease cleavage site) (peptide)
peptide: RMKQLEDKVENLYSQSYHLENEVAC(fluorescein or rhodamine)LKKLVGER
modifications: reading uncertain
notes: GCN4-derived homodimeric reporter; The fluorescein- and rhodamine-labelled forms are written as one molecule
Take B6: in data set [4], the binding result is given as “binds”.
